Source: the supplement of paper PMC10567573

B1: PTPLAD1 (parent)
chain: YSFYMLTCIDMDWKVLTWLRYTLW

Variants of: B1
Experiment: protein stability index of a GFP-peptide fusion (GPS, HEK-293T) (PSI 1-6); higher = more stable
Conditions: c terminus: a fixed tail appended
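Note: lentivirally expressed fusions sorted by FACS into six bins by GFP to DsRed ratio, PSI derived from sequencing read proportions per bin multiplied by bin number.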

Protein stability index of substitutions, site by site:
W13: L 2.72, P 3.04, N 4.03, D 1.74, V 3.87, Y 4.08, F 2.73, I 3.42
I9: D 2.78, Q 2.85, P 2.05, Y 1.74, N 2.78, H 1.65, T 1.25, M 2.6, C 1.58, K 1.66
L23: A 3.26, I 2.88, T 4.8, P 4.2, Q 3.84, S 2.99, F 2.46, W 2.4
Y21: V 2.28, F 2.66, W 1.84, S 3.16, R 2.05, L 3.2, G 3.32, N 4.05, E 3.44
F3: A 2.37, T 1.68, C 2.18, M 3.14, D 2, W 2.37, K 1.69, I 3.74, E 2.31
Y4: K 2.05, S 1.77, F 2.53, C 4.29, I 3.63, G 2.99, Q 1.98
K14: N 3.02, F 1.85, M 1.28, T 3.16, R 2.34, A 2.96, D 2.16, I 2.92, W 2.45
L6: A 2.21, K 1.28, D 2.56, Q 1.31, T 2.85
L16: Q 2.4, F 3.23, A 3.49, E 2.06, R 2.13
T22: N 2.27, A 2.78, V 1.99, M 2.12
D10: N 2.6, A 3.85, E 2.65, V 3.62, F 3.86, T 2.76, G 4.97, P 1.95
M5: K 2.41, F 3.81, Q 2.64, G 2.15, H 2.54, R 2.7
R20: N 4.06, I 1.69, L 1.23, F 1.28, K 3.46
M11: L 3.18, K 3.05, R 2.86, W 2.13
L19: R 2.4, A 2.9, W 2.31, H 2.65, K 2.22, I 2.06
Y1: C 2.62, R 1.4, T 2.2, V 4.18, S 2.07, H 2.28, K 2.1, P 1.7, N 2.57
C8: P 1.7, E 2.25, N 2.97, D 2, W 2.54, M 1.73, T 2.51, I 3.23, G 3.31, F 2.48
W18: F 3.34, H 4.4, D 1.68, K 3.24, I 3.65
D12: A 1.63, P 1.94, L 2.09, V 1.79, I 1.82, T 1.91, M 1.51, C 1.65
S2: V 1.58, D 1.35, T 1.56, Y 2.99, C 1.93, Q 1.97
W24: R 2.04, C 2.42, G 2.39, K 1.37, D 4.01, N 2.55, E 2.77
V15: R 1.61, I 4.29, M 1.03, C 3.85, W 2.22, E 1.86, L 1.89
T7: D 2.73, S 2.16, E 3.27, P 2.94, K 2.49, I 2.86, L 2.43, Y 3.62, Q 3.88
T17: E 2.15, R 3.47, H 2.63
